Where “and” joins values, the source holds several entries; their conditions need not be identical. Equal entries are not always repeated.
Assays:
[1] = Isothermal equilibrium denaturation in guanidine HCl monitored by CD; type: physicochemical; settings: for Cm / m-value / ΔG0: GuHCl, 298K, CD signal at 227 nm; for ΔΔG: relative to WT*, negative value = more stable
Description: Protein samples were equilibrated overnight in 20 mM N-2-(acetamido)iminodiacetic acid (ADA), 100 mM NaCl pH 6.60 at 298K in 0.1M increments of guanidine HCl (GuHCl). All samples contained a final protein concentration of 25 μM. An Aviv model 202 circular dichroism spectrometer (Proterion Corp., Piscataway, N.J.) equipped with a Peltier controlled temperature unit maintaining a constant temperature of 298K was used for all spectroscopic measurements. For each sample, triplicate scans were collected and averaged. Buffer traces were collected, averaged and subtracted from the sample traces. Data smoothing was performed prior to buffer subtraction using a 5-point Fourier transform filter. The denaturation process was monitored by observing the change in CD signal at 227 nm with increasing GuHCl, according to published references. The general purpose non-linear least squares fitting program DataFit™ (Oakdale Engineering, Oakdale Pa.) was used to fit the change in molar ellipticity at 227 nm versus GuHCl concentration to a six parameter two state model: F=(F0N+SN[D]+F0D+SD[D])e^−((ΔG0+m[D]/RT)/1+e^−((ΔG0+m[D]/RT) (1) where [D] is the denaturant concentration, F0N and F0D are the 0M denaturant molar ellipticity intercepts for the native and denatured states, respectively, and SN and SD are the slopes of the native and denatured state baselines, respectively. ΔG0 and m describe the linear function of the unfolding free energy versus denaturant concentration at 298K. The effect of a given mutation upon the stability of the protein (ΔΔG) was calculated by taking the difference between the Cm values for WT* and mutant and multiplying by the average of the m values, as described by Pace and Scholtz (Measuring the conformational stability of a protein; in Protein Structure: A Practical Approach, Creighton, T. E., ed., pp. 299-321, Oxford University Press, Oxford; 1997): ΔΔG=(CmWT*−Cm mutant)(mWT*+mmutant)/2 (2) Folding Kinetics Measurements.
Previous studies by others of the stability and folding of FGF-1 have been performed by monitoring the fluorescence signal of the single buried Trp 107 in FGF-1. This Trp in the WT* structure is somewhat unusual in that it is more highly quenched in the native state than the denatured. […] We have previously compared the fluorescence and CD spectroscopic response of FGF-1 to denaturation by GuHCl and shown essentially indistinguishable results for both his-tagged and non-his-tagged forms. A tabulation of the mutant thermodynamic data from isothermal equilibrium denaturation, monitored by CD signal, is listed in Table II. The data in this table for the SYM6 mutant are from our previously published isothermal equilibrium denaturation study monitored by fluorescence.

[2] = Folding and unfolding kinetics (Chevron plot, stopped-flow CD, GuHCl); type: physicochemical; settings: for kf: folding rate constant extrapolated to 0M GuHCl; for kf / ku: global Chevron fit; for ΔΔG‡-D / ΔΔG‡-N: in reference to WT*; for ΔΔG‡-D: positive value = decrease in folding activation barrier; for ΔΔG‡-N: positive value = decrease in unfolding activation barrier; for mf: slope of ln(kf) vs GuHCl; for mu: slope of ln(ku) vs GuHCl; for ku: unfolding rate constant extrapolated to 0M GuHCl
Description: Due to signal-to-noise considerations, relatively high protein concentrations (>100 μM) of FGF-1 were required for kinetic studies monitored by CD. At these concentrations protein precipitation occurred in ADA buffer. Therefore, a different buffering system was chosen for the kinetic studies to permit higher protein concentrations without precipitation. Protein samples were dialyzed against 50 mM sodium phosphate, 100 mM NaCl, 10 mM ammonium sulfate, 2 mM DTT, and typically 2.5, 3.0 or 3.8M GuHCl pH 7.5 overnight at 298K prior to data collection (higher concentrations of GuHCl were required to ensure complete denaturation for some stabilizing mutations).
Protein samples were degassed for 10 minutes prior to analysis. Refolding was initiated by a 1:10 dilution of protein solutions into 50 mM sodium phosphate, 100 mM NaCl, 10 mM ammonium sulfate, 2 mM DTT pH 7.5 containing either 0.1M or 0.05M increments of GuHCl up to the midpoint of denaturation. All data were collected using an Aviv model SF305 stopped flow system. Data collection times for each protein were designed to quantify the CD signal over 5 half-lives, or >96% of the total expected amplitude.
Protein samples (300 μM) were dialyzed against 50 mM sodium phosphate, 100 mM NaCl, 10 mM ammonium sulfate, 2 mM DTT pH 7.50 buffer overnight at 298K, and degassed for 10 min prior to data collection. Unfolding was initiated by 1:10 dilution of the native protein into 50 mM sodium phosphate, 100 mM NaCl, 10 mM ammonium sulfate, 2 mM DTT pH 7.5 buffer with final GuHCl concentration in the range of 1.5 to 5.5M in 0.5M increments. The unfolding process was quantified by following the change in CD signal at 227 nm, and data collection times for each protein were designed so as to monitor the CD signal over 3 to 4 half-lives, or >93% of the total expected amplitude.
Triplicate scans were collected for both folding and unfolding kinetic data at each GuHCl buffer condition. In all cases, data from at least three separate experiments were averaged. The kinetic rates and amplitudes versus denaturant concentration were calculated from the time dependent change in CD signal using a single exponential model: I(t)=Aexp(−kt)+C (3) where I(t) is the intensity of CD signal at time t, A is the corresponding amplitude, k is the observed rate constant for the reaction and C is a constant that is the asymptote of the CD signal. Folding and unfolding rate constant data were fit to a global function describing the contribution of both rate constants to the observed kinetics as a function of denaturant (“Chevron” plot): In(kobs)=In(kf0exp(mkfD)+ku0exp(mkuD)) (5) where kf0 and ku0 are the folding and unfolding rate constants, respectively, extrapolated to 0M denaturant, mkf and mku are the slopes of the linear functions relating In(kf) and In(ku), respectively, to D, the denaturant concentration. Changes in activation barriers upon mutation were calculated using a modified version of transition state theory: ΔΔG‡-D=RTIn(kf Mut/kfWT*) and ΔΔG‡-N=RTIn(ku Mut/kuWT*) (6) where kf Mut, ku Mut, kf WT* and ku WT* are the folding and unfolding rates for mutant and WT*, respectively, in water. ΔΔG‡-D, and ΔΔG‡-N are the changes in the activation barrier for folding and unfolding, respectively, between mutation and WT*. A positive value for ΔΔG‡-D or ‡‡G‡-N indicates a decrease in the associated activation barrier energy. Isothermal Titration Calorimetry.
Due to the relatively weak differential CD signal of native and denatured FGF-1, the folding kinetics study required relatively high protein concentrations (>5 mg/ml). […] Thus, the refolding rate constants were not obtainable below certain denaturant concentrations for these mutants. […] The SYM6Δ120-122 mutant is substantially destabilized relative to the WT* protein (see Table II) and presents a relatively short “folding arm” in the Chevron plot, for this reason there is greater uncertainty associated with the folding kinetics determined for this mutant. […]

Molecule | Cm [1] | m-value [1] | ΔG0 [1] | ΔΔG [1] | kf [2] | ΔΔG‡-D [2] | ΔΔG‡-N [2] | mf [2] | mu [2] | ku [2] | effect on stability of insertion of both loop regions ([1]; relative to SYM5ΔΔ) | increase in protein stability ([1]; in comparison to WT*) | folding behavior ([2]; all denaturant concentrations evaluated)
WT*: Wild type (his-tagged) 140 amino acid form of human FGF-1, SEQ ID NO: 4 [reference compound] | 1.06 ± 0.01 M | 20.1 ± 0.5 kJ/mol M | 5.09 ± 0.19 kcal/mol | 0 kcal/mol | 3.31 s⁻¹ | 0 kcal/mol | 0 kcal/mol | -6.05 M⁻¹ | 0.47 M⁻¹ | 0.69 1 × 10^−3 sec^−1 | – | – | –
SYM5/Δ104-106: SYM5 FGF-1 mutant plus Ala103→Gly/ΔGlu104/ΔLys105/ΔAsn106 (protein, UniProt P05230 16-155, looked up, variant L44F L73V V109L L111I C117V A103G del104-106) Fibroblast growth factor 1: FNLPPGNYKKPKLLYCSNGGHFLRILPDGTVDGTRDRSDQHIQFQLSAESVGEVYIKSTETGQYLAMDTDGLVYGSQTPNEECLFLERLEENHYNTYISKKHGWFLGIKKNGSVKRGPRTHYGQKAILFLPLPVSSD | 1.47 ± 0.01 M | 17.2 ± 0.5 kJ/mol M | 6.05 ± 0.22 kcal/mol | -1.82 kcal/mol | 2.00 s⁻¹ | -0.299 kcal/mol | -0.0598 kcal/mol | -3.70 M⁻¹ | 0.95 M⁻¹ | 0.62 1 × 10^−3 sec^−1 | – | – | –
SYM5: FGF-1 core mutant Leu44→Phe/Leu73→Val/Val109→Leu/Leu111→Ile/Cys117→Val (protein, UniProt P05230 16-155, looked up, variant L44F L73V V109L L111I C117V) Fibroblast growth factor 1: FNLPPGNYKKPKLLYCSNGGHFLRILPDGTVDGTRDRSDQHIQFQLSAESVGEVYIKSTETGQYLAMDTDGLVYGSQTPNEECLFLERLEENHYNTYISKKHAEKNWFLGIKKNGSVKRGPRTHYGQKAILFLPLPVSSD | 1.05 ± 0.01 M | 17.5 ± 0.3 kJ/mol M | 4.4 ± 0.096 kcal/mol | 0.048 kcal/mol | 2.57 s⁻¹ | -0.151 kcal/mol | -0.6 kcal/mol | -6.44 M⁻¹ | 0.57 M⁻¹ | 0.25 1 × 10^−3 sec^−1 | +15.0 kJ/mol | – | –
SYM5/Δ120-122: SYM5 FGF-1 mutant plus Arg119→Gly/ΔGly120/ΔPro121/ΔArg122, SEQ ID NO: 2 (protein, Human FGF-1 mutant SYM5D120-122) FNLPPGNYKKPKLLYCSNGGHFLRILPDGTVDGTRDRSDQHIQFQLSAESVGEVYIKSTETGQYLAMDTDGLVYGSQTPNEECLFLERLEENHYNTYISKKHAEKNWFLGIKKNGSVKGTHYGQKAILFLPLPVSSD | 1.00 ± 0.02 M | 16.6 ± 0.5 kJ/mol M | 3.97 ± 0.12 kcal/mol | 0.263 kcal/mol | 7.29 s⁻¹ | 0.468 kcal/mol | 0.502 kcal/mol | -6.44 M⁻¹ | 0.80 M⁻¹ | 1.60 1 × 10^−3 sec^−1 | – | – | –
SYM6/ΔΔ: SYM6 FGF-1 mutant plus both Δ104-106 and Δ120-122 deletion mutations, SEQ ID NO: 1 (protein, Human FGF-1 mutant SYM6DD) FNLPPGNYKKPKLLYCSNGGHFLRILPDGTVDGTRDRSDQHIQFQLSAESVGEVYIKSTETGQYLAIDTDGLVYGSQTPNEECLFLERLEENHYNTYISKKHGWFLGIKKNGSVKGTHYGQKAILFLPLPVSSD | 1.91 ± 0.02 M | 17.7 ± 0.4 kJ/mol M | 8.1 ± 0.14 kcal/mol | -3.85 kcal/mol | 74.0 s⁻¹ | 1.84 kcal/mol | 0.602 kcal/mol | -4.40 M⁻¹ | 0.69 M⁻¹ | 1.90 1 × 10^−3 sec^−1 | – | 3.85 kcal/mol and ~3.82 kcal/mol | single exponential folding behavior

Reference: patent US7790682B1, “Engineered human acidic fibroblast growth factors and associated methods” (The Florida State University Research Foundation, Inc., priority 2003, dated 2010)
